Test results: US20260166140A1, “Combinations Involving Epidermal Growth Factor Receptor Tyrosine Kinase Inhibitors For the Treatment of Cancer” (AstraZeneca AB, priority 2022, published 2026)

Assays:
[1] = tested on: multiple additional solid tumor indications; conditions: cited from earlier work
[2] = tested on: HCC827 cells; experiment: Internalization of AF647-labeled antibodies, live cell confocal fluorescence microscopy; type: cell-based; conditions: HCC827 cells
Procedure: (§1) Internalization kinetics of AlexaFluor647 (AF647) primary-labeled DuetMabs: RAA22/B09 and QD6/B09 antibodies was assessed in vitro using the EGFR and c-MET expressing cell line, H1975. Each antibody was pre-bound to cells and antibody translocation from cell surface to cytoplasm was then monitored using live cell confocal fluorescence microscopy. Both antibodies localized primarily on the cell surface before (T=0) subjecting to internalization conditions and were translocated to the cytoplasm area after 1 hour (data not shown). Kinetic images were taken every 5 min over the time course of internalization and were processed using a quantitative algorithm to determine internalization kinetic constants and half-times.
Since binding of both EGFR and c-MET arms to target receptor promoted RAA22/B09 receptor internalization in H1975 cells, we examined if the increased number of EGFR and c-MET receptors would affect internalization properties. The respective receptor levels determined by Western Blot were ˜33,000 for EGFR and ˜50,000 for c-MET in H1975 cells and ˜790,000 for EGFR and ˜523,000 for c-MET in HCC827 cells.

[3] = tested on: H1975 cells; experiment: as above; type: cell-based; conditions: for internalization profile: single-arm control antibodies
Procedure: as §1
To evaluate the mode of antibody internalization and to investigate contribution of each arm to overall internalization of the DuetMabs, we evaluated internalization of single-arm specific control antibody molecules, QD6/IgG and B09/IgG, against duet QD6/B09, and RAA22/IgG and B09/IgG against duet RAA22/B09 in H1975 cells, which express both EGFR and c-MET. Since only one arm is specific for the target receptor, the control antibody can only internalize via one receptor eliminating dual receptor targeting and cross-linking as mode of internalization.

[4] = molecular target: T1, Mouse EGFR (Mus musculus, UniProt Q01279); experiment: ELISA species cross reactivity; type: binding
T1 construct: purchased SinoBiological 51091-M08H
Procedure: (§2) Specificity for EGFR and cMET species paralogs and closely related family members was determined by ELISA. Briefly, antigen solutions were prepared in PBS at 1 μg/mL and 50 microliters was coated onto half area ELISA assay plates. Plates were washed and blocked with 1% BSA in PBS containing 0.005% Tween-20 (PBS-T) for one hour at room temperature. The wells were washed 4 times in PBS-T. As set out in FIG. 3, the primary antibodies used where: R374 (a non-binding IgG1 isotype control antibody), B09 (anti-cMET antibody), QD6 (anti-EGFR antibody), RAA22 (anti-EGFR antibody), QD6/B09 (bispecific EGFR/c-MET DuetMAb), RAA22/B09 (bispecific EGFR/c-MET DuetMAb), PaniX (anti-EGFR antibody), MetMab (anti-cMET antibody) and Mab11311 (anti-HER4 antibody). Wells were incubated with 50 microliters of the indicated primary antibodies diluted in PBS-T in a 1:3 dilution series, starting at 10 μg/mL and ending at 0.002 μg/mL, except for the HER4 binding mAb control, MAB1131, for which the series started at 1 μg/mL. The wells were washed 4 times in PBS-T, then 50 μl of goat anti-human Fab HRP-labeled secondary antibody, diluted 1:5000 in PBS-T, was added to each well and incubated for one hour at room temperature. […] 50 microliters of TMB stop solution was added to all wells and the absorbance was read at 450 nm on a SpectraMax M5 microplate reader. Data were analyzed in the SoftMax Pro 5 software and plotted using GraphPad Prism 7 graphing software.
(§3) To determine the species cross reactivity, ELISA assays were carried out as described above. […] There was no detectable binding of any of the antibodies to mouse cMET.

[5] = molecular target: T2, Human EGFR (Homo sapiens, UniProt P00533); experiment: ELISA species cross reactivity; type: binding; conditions: antibody 10 to 0.002 μg/mL
Procedure: as §2, §3

[6] = tested on: Cynomolgus monkey EGFR; experiment: ELISA species cross reactivity; type: binding
Procedure: as §2, §3

[7] = molecular target: T1, Mouse EGFR; experiment: SPR (BIAcore T200) antibody capture kinetics; type: binding; conditions: 25° C.
Procedure: (§4) Mouse anti-human IgG was immobilized on a CM4 sensor chip with a final surface density of ˜2000 resonance units (RUs). A reference flow cell surface was also prepared on this sensor chip using identical immobilization protocol. Test and control article antibodies were prepared at 5-20 nM in instrument buffer (HBS-EP buffer; 0.01M HEPES, pH 7.4, 0.15M NaCl, 3 mM EDTA, and 0.005% P-20), along with 3-fold serial dilutions of purified EGFR (0.27-200 nM human, 0.4-900 nM cyno, and 4-1000 nM murine) or cMET proteins (0.27 to 66 nM human and 0.27-22 nM cyno) in instrument buffer. A sequential approach was utilized for kinetic measurements. Antibodies were first injected over the capture surface, at a flow rate of 10 μL/minute. Once the binding of the captured antibody stabilized, a single concentration of the analyte was injected over both capture and reference surfaces, at a flow rate of 75 μL/minute. The resulting binding response curves yielded the association phase data. Following the injection of analyte, the flow was then switched back to instrument buffer for 15 minutes to permit the collection of dissociation phase data, followed by a 1-minute pulse of 10 mM glycine, pH 1.5, to regenerate the antibody-captured surface on the chip. Binding responses against test and control article antibodies were recorded from duplicate injections of each concentration of analyte. In addition, several buffer injections were interspersed throughout the injection series. Select buffer injections were used along with the reference cell responses to correct the raw data sets for injection artifacts and/or nonspecific binding interactions, commonly referred to as “double referencing”. Corrected binding data were globally fit to a 1:1 binding model (Biacore T200 Evaluation software 2.0, GE Healthcare, Pittsburgh, PA).

[8] = molecular target: T2, Human EGFR; experiment: SPR (BIAcore T200) antibody capture kinetics; type: binding; conditions: 25° C.
Procedure: as §4

[9] = tested on: Cynomolgus monkey EGFR; experiment: SPR (BIAcore T200) antibody capture kinetics; type: binding; conditions: 25° C.
Procedure: as §4

ABT-414
efficacy ([1]; Phase II trials, tolerated doses): limited efficacy at tolerated doses | ocular toxicities ([1]; treated patients): concerning ocular toxicities were frequently observed in treated patients

B1: B09/IgG: single-arm specific control antibody molecule with B09 cMET arm (antibody, V domains shown)
VH: QVQLVQSGAEVKKPGASVKVSCKASGYTFTDYYIHWVRQATGQGLEWMGWMNPNSGNTGYAQKFQGRVTMTRDTSISTAYMELSSLRSEDTAVYYCARGQGYTHSWGQGTMVTVSS
VL: DIQMTQSPSTLSASVGDRVTITCRASEGIYHWLAWYQQKPGKAPKLLIYKASSLASGVPSRFSGSGSGTEFTLTISSLQPDDFATYYCQQYSNYPPTFGGGTKLEIK
modifications: left off: another chain or arm of the molecule; a dimerising Fc or GST; small tags and cut ends
internalization profile [2]: dissociates from cell membrane | internalization profile [3]: very small level of internalization

B2: RAA22/IgG: single-arm specific control antibody molecule with RAA22 EGFR arm (antibody, V domains shown)
VH: QVQLVQSGAEVKKPGSSVKVSCKASGGTFSDNDFSWVRQAPGQGLEWMGAIVAVFRTETYAQKFQDRVKITADISTRTTYMELSSLRSEDTAVYYCARRLMSAISGPGAPLLMWGQGTLVTVSS
VL: QSALTQPRSVSGSPGQSVTISCTGTSSDVGGYNYVSWYQQHPGKAPKLMIYDVSKRPSGVPDRFSGSKSGNTASLTISGLQAEDEADYYCSSYTSSDTLEIFGGGTKLTVL
intensity profiles, fold lower than RAA22/B09 [2]: ~10 fold | number of molecules, fold less than for the RAA22-B09 DuetMab (based on fluorescent intensity) [3]: 10.98 fold | internalization profile [3]: rapid internalization

B3: QD6/IgG: single-arm specific control antibody molecule with QD6 EGFR arm (antibody, V domains shown)
VH: QVQLVQSGAEVKKPGSSVKVSCKASGGTFSDNDFSWVRQAPGQGLEWMGAIVAVVRTETYAQKFQDRVKITADISTRTTYMELSSLRSEDTAVYYCARRLMSAISGPGAPLLMWGQGTLVTVSS
VL: QSALTQPRSVSGSPGQSVTISCTGTSSDVGGYNYVSWYQQHPGKAPKLMIYDVSERPSGVPDRFSGSKSGNTASLTISGLQAEDEADYYCFSYTSSDTLEIFGGGTKLTVL
internalization profile [3]: near-identical internalization time course as the QD6/B09 DuetMab

B4: QD6 IgG: high affinity anti-EGFR IgG1 antibody clone, VH SEQ ID NO: 18, VL SEQ ID NO: 22 (antibody, V domains shown)
VH: QVQLVQSGAEVKKPGSSVKVSCKASGGTFSDNDFSWVRQAPGQGLEWMGAIVAVVRTETYAQKFQDRVKITADISTRTTYMELSSLRSEDTAVYYCARRLMSAISGPGAPLLMWGQGTLVTVSS
VL: QSALTQPRSVSGSPGQSVTISCTGTSSDVGGYNYVSWYQQHPGKAPKLMIYDVSERPSGVPDRFSGSKSGNTASLTISGLQAEDEADYYCFSYTSSDTLEIFGGGTKLTVL
ELISA binding [4]: gave robust signals | ELISA binding [5]: gave robust signals | ELISA binding [6]: gave robust signals | Koff [7]: 0.000735 s⁻¹ | Kon [7]: 167000 M⁻¹ s⁻¹ | Koff [8]: 0.000292 s⁻¹ | Kon ([8]; 1:1 binding model): 148000 M⁻¹ s⁻¹ | Koff [9]: 0.000288 s⁻¹ | Kon [9]: 114000 M⁻¹ s⁻¹
